Data reported in PMC5735301 (Oncogene, 2017).
Values joined by “and” are separate entries in the source; they are usually repeats but may differ in a detail not shown here. Equal values may be shown once.

Target: the molecule itself

B1: RXRα (protein of Supplementary Figure S1f; tetramer and dimer) (natural protein)
chain: MDTKHFLPLDFSTQVNSSLTSPTGRGSMAAPSLHPSLGPGIGSPGQLHSPISTLSSPINGMGPPFSVISSPMGPHSMSVPTTPTLGFSTGSPQLSSPMNPVSSSEDIKPPLGLNGVLKVPAHPSGNMASFTKHICAICGDRSSGKHYGVYSCEGCKGFFKRTVRKDLTYTCRDNKDCLIDKRQRNRCQYCRYQKCLAMGMKREAVQEERQRGKDRNENEVESTSSANEDMPVERILEAELAVEPKTETYVEANMGLNPSSPNDPVTNICQAADKQLFTLVEWAKRIPHFSELPLDDQVILLRAGWNELLIASFSHRSIAVKDGILLATGLHVHRNSAHSAGVGAIFDRVLTELVSKMRDMQMDKTELGCLRAIVLFNPDSKGLSNPAEVEALREKVYASLEAYCKHKYPEQPGRFAKLLLRLPALRSIGLKCLEHLFFFKLIGDTPIDTFLMEMLEAPHQMT
stoichiometry N: 4 and 2
